This assay has as its system partial-thickness injury of rabbit knee cartilage. Kind of assay: Partial-thickness cartilage defect of adult rabbit knee joint, intra-articular rhMK. It is filed as in vivo, New Zealand white rabbits. Particulars: adult rabbit knee cartilage partial-thickness injury model, 4 and 9 weeks after surgery, versus saline side. The protocol: Method. 9˜10-month-old male New Zealand white rabbits (3.0˜3.5 kg weight) were anesthetized with 3% pentobarbital sodium (30 mg/kg) by ear vein injection. After anesthesia, the skin was prepared on both sides of the knees. With conventional surgical sterilization and under sterile conditions, the inner side of the knees was cut to expose the femoral condyle surface. A hand-drill was used to make a partial-thickness cartilage injury of 3 mm in diameter on the femoral condyle surface. The partial-thickness injury was created by the criterion of no bleeding in the injured cartilage hole. The wound was sutured with 4-0 lines. 400,000 units penicillin was injected every day for one week to prevent the wound site infection. 24 h after the surgery, normal saline or rhMK was injected into the knee-articular cavity. Partial-thickness cartilage damages were created on both rabbit knees. One knee received 0.5 ml saline as control side, while 0.5 ml rhMK was given into the other knees as treatment side. The injections were given three times a week, for 2 weeks totally. The rabbits were kept in cage and allowed freedom of movement without the knee fixed. 4 and 9 weeks after the surgery, rabbits were sacrificed. The knee-joint cartilage tissues were removed for routine biopsy, H&E, and toluidine blue staining, and their histological changes were analyzed under microscope.

The source of these data is patent publication US9283300B2, “Use of midkine protein and the protein-containing medical device” (GENERAL REGENERATIVES, LTD, priority 2009, dated 2016).

B1: rhMK: recombinant human midkine mature protein (SEQ ID NO.1) expressed in E. coli and purified by ion-exchange chromatography (protein, listed as Homo sapiens)
chain: MKKKDKVKKGGPGSECAEWAWGPCTPSSKDCGVGFREGTCGAQTQRIRCRVPCNWKKEFGADCKYKFENWGACDGGTGTKVRQGTLKKARYNAQCQETIRVTKPCTPKTKAKAKAKKGKGKD
As for B1, the “repair of injured cartilage (histology)” value is “repairs the injured cartilage with regenerated cartilage tissues”.
